Experimental findings from patent US20150139990A1 (DAINIPPON SUMITOMO PHARMA, published 2015) are described below.

One experiment deals with T1, human CD81 mutant I194A (human, UniProt P60033 1-236, limits assumed).
T1 construct: as m30; not shown: C-terminal V5 and 6xHis tags
T1 sequence: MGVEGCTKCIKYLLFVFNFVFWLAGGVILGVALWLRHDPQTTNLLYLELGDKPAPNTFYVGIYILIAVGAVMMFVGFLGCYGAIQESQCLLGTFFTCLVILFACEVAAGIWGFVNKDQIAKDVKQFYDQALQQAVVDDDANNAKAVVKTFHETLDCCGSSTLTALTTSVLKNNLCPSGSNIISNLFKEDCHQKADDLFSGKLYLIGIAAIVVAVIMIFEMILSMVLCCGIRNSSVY
As to the kind of experiment: ELISA.

The next experiment deals with T2, human CD81 mutant V135A (human, UniProt P60033 1-236, limits assumed).
T2 construct: as m30; not shown: C-terminal V5 and 6xHis tags
T2 sequence: T1 sequence with V135A, A194I
Kind of experiment: ELISA. On the technique in general: In an ELISA, binding on a coated surface is turned into a signal by an enzyme label.

The next experiment deals with T3, human CD81 mutant A164T (human, UniProt P60033 1-236, limits assumed).
T3 construct: as m30; not shown: C-terminal V5 and 6xHis tags
T3 sequence: T1 sequence with A164T, A194I
Kind of experiment: ELISA.

A further experiment addresses T4, human CD81 mutant S168A (human, UniProt P60033 1-236, limits assumed).
T4 construct: as m30; not shown: C-terminal V5 and 6xHis tags
T4 sequence: T1 sequence with S168A, A194I
As to the kind of experiment: ELISA.

A further experiment has as its target T5, human CD81 mutant V169A (human, UniProt P60033 1-236, limits assumed).
T5 construct: as m30; not shown: C-terminal V5 and 6xHis tags
T5 sequence: T1 sequence with V169A, A194I
As to the kind of experiment: ELISA.

A further experiment concerns the target T6, human CD81 mutant L165A (human, UniProt P60033 1-236, limits assumed).
T6 construct: as m30; not shown: C-terminal V5 and 6xHis tags
T6 sequence: T1 sequence with L165A, A194I
As to the kind of experiment: ELISA.

A further experiment concerns the target T7, human CD81 mutant S168T (human, UniProt P60033 1-236, limits assumed).
T7 construct: as m30; not shown: C-terminal V5 and 6xHis tags
T7 sequence: T1 sequence with S168T, A194I
As to the kind of experiment: ELISA.

The target in another experiment is T8, human CD81 mutant V169L (human, UniProt P60033 1-236, limits assumed).
T8 construct: as m30; not shown: C-terminal V5 and 6xHis tags
T8 sequence: T1 sequence with V169L, A194I
Kind of experiment: ELISA.

In the next experiment the target is T9, human CD81 mutant A164V (human, UniProt P60033 1-236, limits assumed).
T9 construct: as m30; not shown: C-terminal V5 and 6xHis tags
T9 sequence: T1 sequence with A164V, A194I
As to the kind of experiment: ELISA.

Experiment [1] addresses T10, human CD81 on CD81-expressing cells (Jurkat E6.1, human PBMC, Ramos) (human, UniProt P60033 1-236).
T10 sequence: T1 sequence with A194I
Kind of experiment: cell-based or functional assay.

Where a chain is given by its changes, count along the chain named. Names may count otherwise.

B1: 002-F05 (antibody, human IgG4 S228P, lambda, V domains shown)
VH: EVQLLESGGGLVQPGGSLRLSCAASGFTFSSNYMSWVRQAPGKGLEWVSYISSSSTYTDYADSVKGRFTISRDNSKNTLYLQMNSLRAEDTAVYYCARYSYGRDDFDYWGQGTLVTVSS
VL: QSVLTQPASASGTPGQRVTISCTGSTSNIGAGYDTHWYQQLPGTAPKLLIYGNSNRPSGVPDRFSGSKSGTSASLAISGLRSEDEADYYCQSYDTNLNVWVFGGGTKLTVLG
notes: IgG4 S228P
For the molecule B1, the relative binding affinity in the experiment with human CD81 mutant I194A, in the experiment with human CD81 mutant V135A, with human CD81 mutant A164T, with human CD81 mutant S168A, in the experiment with human CD81 mutant V169A and with human CD81 mutant L165A was under 20% throughout. Besides, the relative binding affinity in the experiment with human CD81 mutant S168T, with human CD81 mutant V169L and with human CD81 mutant A164V was under 20% in each case. Besides, the “Jurkat chemotaxis (% of control IgG4) at 0.001 µg/mL” value in experiment [1] worked out at 102%. Moreover, the “Jurkat chemotaxis (% of control IgG4) at 0.01 µg/mL” value in experiment [1] amounted to 79%. The “Jurkat chemotaxis (% of control IgG4) at 0.1 µg/mL” value in experiment [1] was 27%. The “Jurkat chemotaxis (% of control IgG4) at 1 µg/mL” value in experiment [1] is 5%. Also, in experiment [1], the “Jurkat chemotaxis (% of control IgG4) at 10 µg/mL” value came out at 7%.
